Assay results taken from the supplement of paper PMC7125110.
± gives the standard error. For some assays here: Variants at the floor of the assay were thinned out.

B1: glmS ribozyme (parent)
chain: AUAAAAGCGCCAGAACUACAGAAAUGUAGUUGACGAGGAGGAGGUUUAUCGAAUUUUCGGCGGAUGCCUCCAAA

What was measured:
Details in all cases: with glucosamine-6-phosphate
glucosamine-6-phosphate [1] = variants of: B1; assay: kcat; higher = faster cleavage; RNA array
How it was run: (§1)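 Barcoded ribozyme variants were transcribed in situ on sequenced MiSeq chips by E. coli RNA polymerase. At 37 °C, a hybridised Cy3 probe tracked them while glucosamine-6-phosphate (40 μM to 10 mM) in HEPES/KCl/Mg(OAc)2 buffer flowed in and tiles were imaged over ~14 h. Per-tile medians of signals normalised to baseline and to non-cleaving reference variants were fit to one- or two-exponential decays, giving kobs. kcat and KM came from weighted Michaelis–Menten fits across concentrations.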

glucosamine-6-phosphate [2] = variants of: B1; assay: KM; higher = weaker cofactor use; RNA array
How it was run: as §1

glucosamine-6-phosphate [3] = variants of: B1; assay: self-cleavage kobs at 40 uM GlcN6P; higher = faster cleavage; RNA array
How it was run: as §1

glucosamine-6-phosphate [4] = variants of: B1; assay: self-cleavage kobs at 160 uM GlcN6P; higher = faster cleavage; RNA array
How it was run: as §1

glucosamine-6-phosphate [5] = variants of: B1; assay: self-cleavage kobs at 640 uM GlcN6P; higher = faster cleavage; RNA array
How it was run: as §1

glucosamine-6-phosphate [6] = variants of: B1; assay: self-cleavage kobs at 2500 uM GlcN6P; higher = faster cleavage; RNA array
How it was run: as §1

glucosamine-6-phosphate [7] = variants of: B1; assay: self-cleavage kobs at 10000 uM GlcN6P; higher = faster cleavage; RNA array
How it was run: as §1

Variant	kcat (glucosamine-6-phosphate [1]) [s⁻¹]	KM (glucosamine-6-phosphate [2]) [µM]	self-cleavage kobs at 40 uM GlcN6P (glucosamine-6-phosphate [3]) [s⁻¹]	self-cleavage kobs at 160 uM GlcN6P (glucosamine-6-phosphate [4]) [s⁻¹]	self-cleavage kobs at 640 uM GlcN6P (glucosamine-6-phosphate [5]) [s⁻¹]	self-cleavage kobs at 2500 uM GlcN6P (glucosamine-6-phosphate [6]) [s⁻¹]	self-cleavage kobs at 10000 uM GlcN6P (glucosamine-6-phosphate [7]) [s⁻¹]
U30G U56A	0.00811 ± 0.0019	2730 ± 850	0.000125 ± 1.6e-05	0.000498 ± 0.0001	0.00146 ± 0.00024	0.003 ± 0.00057	0.00771 ± 0.0011
C10G C61A	1.32e-05 ± 9.6e-07	180 ± 67	< 1e-05	–	< 1e-05	–	< 1e-05
C11A C16U	0.000159 ± 1.5e-05	1110 ± 340	–	–	6.65e-05 ± 1.5e-05	9.79e-05 ± 1.5e-05	0.000151 ± 1.8e-05
C61U U69A	4.43e-05 ± 1.5e-05	–	–	3.86e-05 ± 1.8e-05	4.2e-05 ± 1.3e-05	6.76e-05 ± 1.9e-05	–
U45C A48U	7.71e-05 ± 4.6e-06	628 ± 170	–	–	–	6.49e-05 ± 1.5e-05	6.96e-05 ± 1.9e-05
G41A U55G	0.000144 ± 2.3e-05	–	–	5.67e-05 ± 1.5e-05	0.000142 ± 3.9e-05	0.000107 ± 1.9e-05	0.000179 ± 2.9e-05
U46C C71U	0.00342 ± 0.00056	1240 ± 290	0.000102 ± 1.5e-05	0.000375 ± 5.8e-05	0.00126 ± 0.00019	0.00309 ± 0.00044	0.00266 ± 0.00038
U46G A48U	0.00014 ± 2.4e-05	–	–	–	3.53e-05 ± 1.4e-05	0.000128 ± 2.5e-05	0.000117 ± 1.6e-05
G41C U45A	0.000121 ± 5.5e-06	1240 ± 160	–	–	4.19e-05 ± 7.6e-06	–	0.000108 ± 1.1e-05
C67U U69G	3.43e-05 ± 1.5e-05	–	–	4.85e-05 ± 1.1e-05	–	4.75e-05 ± 1.2e-05	–
U45A A48C	0.000559 ± 7.1e-05	2130 ± 560	–	–	0.000131 ± 2.3e-05	0.000382 ± 8.1e-05	0.000445 ± 5.6e-05
C11A C70A	2.97e-05 ± 1.1e-05	–	–	–	4.96e-05 ± 1.9e-05	–	–
A39U G59A	2.27e-05 ± 2.6e-06	–	–	–	–	–	–
A14U U65A	0.0015 ± 0.00017	4460 ± 760	–	4.54e-05 ± 1.3e-05	0.000203 ± 2.7e-05	0.000449 ± 0.00012	0.00105 ± 0.00012
G29A A39U A42U	0.000919 ± 0.00015	3000 ± 790	–	4.77e-05 ± 2e-05	0.000148 ± 3.3e-05	0.000488 ± 0.00012	0.000685 ± 0.00014
A20C	0.0144 ± 0.0036	327 ± 110	0.00153 ± 0.00021	0.00529 ± 0.0011	0.00992 ± 0.003	0.0111 ± 0.0039	–
